Assay: soluble on expression in E. coli; label from the status in PepcDB or PDB records

Row | Sequence | soluble on expression in E. coli
1 | MLKVEMLSTGDEVLYGQIVDTNAAWLADFFFHQGLPLSRRNTVGDNLDDLVTILRERSQHADVLIVNGGLGPTSDDLSALAAATAKGEGLVLHEAWLKEMERYFHERGRVMAPSNRKQAELPASAEFINNPVGTACGFAVQLNRCLMFFTPGVPSEFKVMVEHEILPRLRERFSLPQPPVCLRLTTFGRSESDLAQSLDTLQLPPGVTMGYRSSMPIIELKLTGPASEQQAMEKLWLDVKRVAGQSVIFEGTEGLPAQISRELQNRQFSLTLSEQFTGGLLALQLSRAGAPLLACEVIPSQEETLAQTAHWITERRANHFAGLALAVSGFENEHLNFALATPDGTFALRVRFSTTRYSLAIRQEVCAMMALNMLRRWLNGQDIASEHGWIEVVESMTLSV | not soluble
2 | MGSDKIHHHHHHVHLTYENTNEEIIAVKRKPRHQPPHLHNAMEIVCVTKGTLELGVGQELYHMETGDIGVVFPDVIHHYQVFSSEVNEAVFINAPQMIFGRFENVLRNNAPQYPVVKSDVIPDEVYRAVESIIDTGQNDIWVVQAYLQIILARCIPMMKLVEKSKIGSDDIIYRTVSYISANFNKSISLDGMAHDLGVSKFSLSRLFSKTFHSSFNQYVNEARLGYACQRIETTDDTLTEISMDSGFGSLRTFNRVFKEKYRLTPSEYRNKLQI | not soluble
3 | MADVIEIRGPVYNGSDINDIIDTYGENNALTIDATKFAAFYYDIDDNVTTETLSILAVPGTEGNVIGEGGIVYETTIQQVDYEFYRPAAGWSNYSLIGFFAEKYIPINPDKADKLAKLVLDSDDKYTIRTGEQLDLGEGYSIEAKQVDVDGEKVWLEFTKDGEFVDDEIISVVSGSDNTWEVELDDIQDEDDVVVLRVHVNQVFQGAVDSIAQIEGLWLIDYTNAMKIESDDEFGNLDNVKINGDTLTITNEDTFTLTRDDEEEIAEGLFFKTADDTRALEHHHHHH | soluble
4 | GPGSMPRGSSKSKKEVSEEPKTTGGSGGDATETSPPTPKAKKGKGGDKMLVNEPNDEKHTVEDARTVQTPSDHETSAARKKPPPKDVKDEKKSEPAHGGGRLLKNNPNDEVVPVEGMHNVATPRSGLITTESDGAKGTMLRNAPHDEAIPVSGHAITMDTPKRTIDVHPGTITNTDDDDDPKSTEEEESVPIGRTRGYCNPRPEAINLEAEVPETTAPNLGYKPQEYAMVNANASREVQELFKRILDYQPQTPELPAKLRPFIPDYVPSIGDLDPFCKIPRPDGKPDGLGIYVLDEPSVAQSNPAVVLLELRATNIHSVGGLAEAVDSFEDAANRPEVIDRWINDVKKVHYKKPLPTINYQKPMPEIDLLLQVWPQEFEEFLNSDVQFPPPQIDLDLDQYVRALCCILDIPTYTSLIDSLHVMFTLYQEFRANQHFQHE | soluble
5 | MLQPPTLTPNANGEEFRGSVSTDRSSASPSNIDEIMEDDVNQKDEDEDLNLVDRVSKLETNFVFIQHQLSSIMNHLHAPQCKCTTCSKVNQPGAEEQKNDTSVLSQLFPNASDQQLKTLLDLSKMNKLPSQVVHKDQQNGSSFLPSANKTSENPKPIELKPLKLGQGYQMANGGGGGKIHTERLSEPARKQSRKVGFPPPVASYYQRKESSNPLVPPTPLSSIPNLITNSNAVSANTSTASPGPSSEGSGDDHLEAPNEVAHMHSSTVPATPTTPGANLFTQSMVDMLKLNAQNAAHSTGSPGFLRGRGRGRPKLIGDELDADLVDYMVSLKNSDPHGGHFTASQALHMARQYILERAPGLLEEHGGHVKLKLTWAMKLVSRIGERQREIELGLPAGTLSNMGRNLTNIPAGGNFMADMMAQNIFSQHMMMVNQQLEGGSPPASSSSTATTSTATKTVKQESKNGHQNEENLNVKQEASTMPEIINIKELNLPFLNNFLAELNDNNSGLIDGEIGAAGPSMAALFAPNA | not soluble
6 | MSLRVLVMVNDFPNKDNSYTANIFVKEQVKALSEFVEEINVIVPIPRGIELYRKTSYRDYAIGENVHVHFVKYINPLFPIAYSKLRREWIWLEHRALTNFIKKKDIKFDIIHAHYTWPSGAVGVKLKEEYKVPLVITEHTSQTFNRYITTRDPLAREIWQKADIIVRVRKGDIDLFSRVGITPSKIRYIPNGFDGNKFYPIPQEIARRKLNLVEYEKIIINVANMYSRVKGHEYLLRAFSKVAENTSDAFLILVGSGKLLSHLKKLADNLYLGHRVLFAGSKPHDEIPLWMNAADLFVLPSLRESFGVVQIEAMACGVPVVATRNGGSEEIIISEDYGLLCEPANPKELAEKILIALEKEWDREKIRKYAEQFTWENIAKKTLEVYRGVLKEGHHHHHH | soluble
7 | GSHMASRTPKKLSNIALTKETRQSSTDYNGFSRLAVDGNKNGDYGHHSVTHTKEDSPSWWEIDLAQTEELEKLIIYNRTDAEIQRLSNFDIIIYDSNDYEVFTQHIDSLESNNLSIDLKGLKGKKVRISLRSAGIPLSLAEVEVYTYK | soluble
8 | GPGSMVAPAQRTSVYVGDLPIDLPRPEEAINNLFSTVAPVVSVKVCRDMATQRSLGYGYVNFQTTADAEKVIDALNYTGIAPGRQIRVMFSIRDPLQRKSGMNNVFVKKLDTAINAKELQAAFSKCGRVLSCKVALDSAGNSKGYGFVQFETADGTKAALEMNGSKLGDSEVVVAPFVRRVDREAMAAKSFRNIYIKNITASATEADVKAIVEEFGKVDSLFLSEHARFPTKFALVAFEEHQAAVQAIAALNESEESGLTEKAVKLVVCRALSKSERDREKKKAASLYQNHGRNLYIKHLPDDITDDRLREIFEPFGKITSCAIMKEPNGTLKGFAFVCFEDKQHASAALRSLNGHPLEHSAKPLYVSHAEQKDMRIRLLQQRRAAMRHQSRMAPLMNTFPQQWPRHPFPHMVPPMMPPPPPPNMGMPQFMSGPMIRRPVMEPHLMQGEPMRPPNRYTQAREQYPPQQRQDGVDMNYLSTLSPEQQKNYLGELLYSRILPLESSNAAKITGMLLEMSREEIFEILADHFALLSKIQEANAVLQQHTGN | soluble
9 | MSLNKVSLAQIAKAAGVSKMTASRVLRDEGGFSESTRARVMAEIDRLGYVPNRLATVFAGDQRSTFVGVSIPELGNEIFAQVLEGIDRKLGAFGHQTVLGMTEHALEQEEKWLETVLSWQPAGLIVTGRSHTPKSIQLLSGAGIPLVEIWDFNSSPLDMSVGLNHFDSGYSMGRYLTGLGYRQFGYVGTSHDTANAASARLAGYAKVIGDSGGSLKKQLLLKDAPGFYTGYYGTEQLLAANSDVEVIYYQNDNMAVGGLNYCQKRGLSIPGDIGIAGWGDLPIASILPYRLTSTAVPHLRIGMIAAEMVLSQINGEARRRSQDVGFTLIPGSTVRSQLEEGHHHHHH | soluble
10 | GYWGCKDLNSVFVYANQAYGELIGLKRAEDCIGRTDFEMPSPTAACAAEFQQQDRYVIETGHSVKVLDIHPYPDGHWHAHIFTKTPWRDSQGKIQGTIFFGQDLT | not soluble
11 | LAELFEKAAAHLQGLIQVASREQLLYLYARYKQVKVGNCNTPKPSFFDFEGKQKWEAWKALGDSSPSQAMQEYIAVVKKLDPGWNPQIPEKKGKEA | soluble
12 | MSLTISILGARVIDPNSGLDQVTDLHLDGGRIVAIGAAPAGFSASRTIQADGLVAAPGLVDLGVSLREPGYSRKGNIASETRAAVAGGVTSLCCPPQTKPVLDTSAVAELILDRAREAANSKVYPVGALTKGLEGEQLAELVALRDTGCVAFGNGLKEIPNNRTLARALEYAATFDLTVVFHSQDRDLAQGGLAHEGAMASFLGLPGIPESAETVALARNLLLVEQSGVRAHFSQITSARGARLIAQAQALGLPVTADVALYQLILTDESLREFSSLYHVQPPLRTAADRDGLREAVKSGVIQAISSHHQPHERDAKLAPFGATEPGISSVELLLPLAMTLVQDGLLDLPTLLARLSSGPAAALRLPAGELKVGGAADLVLFDPQASTVAGEQWFSRGENCPFIGHCLPGAVRYTLVDGHICHEAEGHHHHHH | soluble
13 | MGSDKIHHHHHHMRHAYRQFGPGTLYTVRLLRALDYLWRHLDEPLLLDRLAEEACFSRFHFHRLYRNLMGETVMESRQRMLLHRAAGELGRADRPLASVAVRAGFSSSAAFIRAFAGRYGETPGRYRQRRLMFLNQRERTMRQVEIVERDAVKVLMRHHRGPYMEIGKAFDALRAVQGPQQGVGAPSRSFGLYLDDQAQTPAADCRSIACATVPAFMEGKAMDGFEWGSIPAGRYAAVLHTGPYSELGECWDWLYRHWLPASGEMPGDTPCVEEYLNAPYDTPPAELKTLLLLSLA | not soluble
14 | MSPQESRRLSIQRCIQSLVHACQCRNANCSLPSCQKMKRVVQHTKGCKRKTNGGCPVCKQLIALCCYHAKHCQENKCPVPFCLNIKHK | soluble
15 | MSLKRRQTNIIGVYLADYGGSFYGELLEGIKKGLALFDYEMIVCSGKKSHLFIPEKMVDGAIILDWTFPTKEIEKFAERGHSIVVLDRTTEHRNIRQVLLDNRGGATQAIEQFVNVGSKKVLLLSGPEKGYDSQERLAVSTRELTRFGIPYEIIQGDFTEPSGYAAAKKILSQPQTEPVDVFAFNDEMAIGVYKYVAETNYQMGKDIRIIGFDNSELGAFVQPRLATIAYSKHRWGMVAAEKIIHLMRGEAAESEHIYTRFIEGESFPSEGHHHHHH | soluble
16 | MILTITYTQPPATDLGYLLHKNPSRPQTFELNHGKAHIFYPEATSERCTVALLLDIDPIDLARGKKGSSGEGGLFDYVNDRPYVSSSFMSVAISRVFGTAMSGKCKEKPELAAIKLPLKAKIMMLPCKGGEEIIYRLFEPLGYKVDVEGYMLDEKFPEWGKSRYYTVSLEGEVRVRDLLNHIYVLIPVLDSEKHYWVGEDEIDKLFQHGEGWLVDHPEKELITGRYLIRKKRLVNQALKRLLEASDVVDDENEDDEPLKNEETEKKLNLNQQRLGTVVAVLKSVNAKKVIDLGCGEGNLLSLLLKDKSFEQITGVDVSYSVLERAKDRLKIDRLPEMQRKRISLFQSSLVYRDKRFSGYDAATVIEVIEHLDENRLQAFEKVLFEFTRPQTVIVSTPNKEYNFHYQNLFEGNLRHRDHRFEWTRKEFETWAVKVAEKYGYSVRFLQIGEIDDEFGSPTQMGVFTL | not soluble
17 | MNTCRGQHGPRRPEAGAAGHRAHVDGGQRGPGGQQEPDWHKAGATIPRLPSPSGSPWRREQDPAPGEPPHIPAHGNRPGGQEIRPRIPGLDREARPAVPPTHSPSYRIRLAGSEPSLVQAAPGQAVQLFCPGNIPPEFQAGWQKEGRPISSNRYQLQADGSLIISRLRPEDAGIYSCGSHRPGHEPQEIQLRVTGGDMAVLPEGQPRHFPEPRNPDLGHGPPHRGTGAEAGGHRVLSPSHPRPATRLRLDRTQPGVVDASPGQRIRLTCRAEGFPVPTIEWQRDGQLVSSPRHQVQPDGSLVISRVDVEDGGYYSCVAFNGQDRDQRWVQLRVLRELTITGLPPAVTVAEGDTARLLCVVAGESVNIRWSRNGLPIQADGHRVHQSPDGTLLIHNLRPRDEGSYTCSAFRGSQAVSRSTEVKVALPAPAAQSRDLGKDCIDQPELANCALILQAQLCGNEYYSSFCCASCSRFQPNAQPVWQQG | soluble
18 | MSLDAISAATHSDPYFYYTRLRARGGLTYDCALRLWVASSAAAVAAVLDHPACQVRPSTEPVPQAIAGRPAGQLFGRLMRMNDGPRQRCPRAAIEPALQGLCTAGLETHLARWQPALAGPACAADLQRWQFVLPVALLASLLGVPAEQCETLARRTGEFVACFSPLSDQPRLQAADRAALELDAQMQALVQAPQHSPLLRQILDRSGELAPADLRANLAGLLAQTHDACAGLVGNSLVALLAAPAMQQRLRQEPGLLGDWLLERQRLDPPVQNTRRFVTAPCTVHGVELQAGETILVLLAAANQDPALAAITGSNPAHQGFSFGAGAHRCPGRELALGIVRCLLHALLQGPGLDALALDWQYQASVNGRIPLFSDRGEAEGHHHHHH | not soluble
19 | MNNGYSPTSSNQQNVSVEHDIIMRGRRIIDITGVKQVESFDSEEFLLETVMGFLTIRGQNLQMKNLDVEKGIVSIKGKVNEMLYIDENQGEKTKGFFSKLFKLEHHHHHH | not soluble

Reference: the DeepSol protein solubility set
